According to patent US20250340661A1 (JIANGSU HENGRUI PHARMACEUTICALS, published 2025):
Read-outs that look alike come from different tables or passages of the source.

Assays:
[1] = biological target: T1, human CD40 on the cell surface (human, UniProt P25942 21-277); assay: cell-based or functional assay
[2] = biological target: T1, human CD40 on the cell surface; assay: cell-based or functional assay; remark: listed apart in the source
[3] = biological target: T1, human CD40 on the cell surface; assay: cell-based or functional assay; remark: listed apart in the source
[4] = biological target: T1, human CD40 on the cell surface; assay: cell-based or functional assay; remark: listed apart in the source
[5] = biological target: T1, human CD40 on the cell surface; assay: cell-based or functional assay; remark: listed apart in the source
[6] = biological target: T1, human CD40 on the cell surface; assay: cell-based or functional assay; remark: listed apart in the source
[7] = biological target: T1, human CD40 on the cell surface; assay: flow cytometry on Raji cells, Alexa Fluor 488 anti-human IgG (H+L) detection
Experimental: Raji cells were plated at 1.5E5/well, and various concentrations of CD40 antagonistic antibodies were added. The plate was incubated at 4° C. for 1 h. After two washes with FACS buffer (PBS+2% FBS), a secondary antibody (Alexa Flour488 conjugated anti-human IgG (H+L) antibody) was added, and the plate was incubated at 4° C. for 0.5 h.
After two washes with FACS buffer, the fluorescence intensity on the cell surface was measured by flow cytometry (BD FACS Celesta).

[8] = biological target: T2, his-tagged human CD40 (h-CD40-his) recombinant protein (human, UniProt P25942 21-193); assay: SPR (Biacore), antibody captured on anti-human Fc chip, His-tagged CD40 as analyte, 1:1 model
T2 construct: Bought from Acrobiosystems, Cat. #CD0-H5228; also called His-tagged human CD40 antigen; not shown: His tag
Experimental: (§1) The test antibody was affinity-captured on an anti-human Fc chip, and a series of concentrations of His-tagged human or cynomolgus monkey CD40 antigen were allowed to flow over the chip surface. Reaction signals were detected in real time using a Biacore instrument, and thus binding and dissociation curves were obtained. The buffer used in the experiment was HBS-EP+10× buffer solution (Cat. #BR-1006-69, GE) diluted to 1× (pH 7.4) with D. I. Water. Fitting was performed on the data obtained from the experiment using a (1:1) Binding model to obtain affinity values. 9E6-L4H2 and 2F12-L4H2 have similar binding constants for human CD40 to CFZ533, 9E6-L4H2 has a stronger binding affinity for cynomolgus monkey CD40, and 2F12-L4H2 has a slightly weak binding affinity for cynomolgus monkey CD40.

[9] = biological target: T3, his-tagged cynomolgus monkey CD40 (cyno-CD40-his) recombinant protein (cynomolgus monkey); assay: as above
T3 construct: Bought from Acrobiosystems, Cat. #CD0-C52H6
Experimental: as §1

human FcRn antigen = human FcRn antigen (human, UniProt P55899 24-297; P61769 21-119); assay: SPR (Biacore), antibody captured on anti-human Fab chip, human FcRn as analyte, steady state model
Experimental: The test antibody was affinity-captured on an anti-human Fab chip, and a series of concentrations of human FcRn antigen (purchased from AcroBiosystem) were allowed to flow over the chip surface. Reaction signals where the reactions were in a steady state were detected in real time using a Biacore instrument. The buffer used in the experiment was HBS-EP+10× buffer solution (Cat. #BR-1006-69, GE) diluted to 1× (pH 7.4) with D. I. Water. Fitting was performed on the data obtained from the experiment using a steady state binding model to obtain affinity values. The anti-CD40 antibodies carrying the AAYTE mutation have a higher binding affinity for human FcRn than their parent antibodies.

[10] = biological target: T1, human CD40 on the cell surface; assay: cell-based or functional assay; remark: listed apart in the source
[11] = biological target: T1, human CD40 on the cell surface; assay: cell-based or functional assay; remark: listed apart in the source

Chain of human FcRn antigen (P55899 24-297 limits assumed, chain 1 of 2): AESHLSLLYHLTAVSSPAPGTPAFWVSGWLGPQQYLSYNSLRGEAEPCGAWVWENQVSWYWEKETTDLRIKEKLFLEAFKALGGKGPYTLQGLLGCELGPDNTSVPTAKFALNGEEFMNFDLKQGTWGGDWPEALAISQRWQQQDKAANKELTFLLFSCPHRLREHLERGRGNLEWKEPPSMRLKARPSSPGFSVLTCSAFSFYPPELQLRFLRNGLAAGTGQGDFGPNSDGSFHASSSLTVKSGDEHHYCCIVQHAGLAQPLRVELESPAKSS
Chain of human FcRn antigen (P61769 21-119 limits assumed, chain 2 of 2): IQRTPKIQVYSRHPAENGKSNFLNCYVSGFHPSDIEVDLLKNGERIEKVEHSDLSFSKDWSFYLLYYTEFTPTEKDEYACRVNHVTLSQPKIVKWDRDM
T1 sequence (P25942 21-277): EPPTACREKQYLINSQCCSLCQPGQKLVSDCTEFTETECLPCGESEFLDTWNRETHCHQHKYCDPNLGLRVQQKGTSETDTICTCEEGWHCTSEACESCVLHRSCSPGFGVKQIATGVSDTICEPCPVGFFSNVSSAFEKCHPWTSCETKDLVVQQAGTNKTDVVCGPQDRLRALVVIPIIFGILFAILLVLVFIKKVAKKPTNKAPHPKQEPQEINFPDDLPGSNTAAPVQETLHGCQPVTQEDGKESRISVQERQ
T2 sequence (P25942 21-193 limits assumed): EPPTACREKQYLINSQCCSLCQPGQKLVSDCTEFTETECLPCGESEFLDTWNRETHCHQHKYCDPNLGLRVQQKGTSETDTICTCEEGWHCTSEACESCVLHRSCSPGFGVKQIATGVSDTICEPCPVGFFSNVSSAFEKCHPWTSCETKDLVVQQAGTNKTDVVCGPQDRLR

Binder | B cell activation assay, CD19+CD69+ % IC50 [2] | B cell activation assay, CD19+CD69+ MFI IC50 [2] | IC50 in DC cell activation assay system, CD80 MFI [3] | IC50 in DC cell activation assay system, CD86 MFI [3] | IC50 in DC cell activation assay system, IL-12/23 p40 [3] | IC50 in DC cell activation assay system, TNFα [3] | IC50 (read off the curve), CD40L-induced B cell activation (CD19+CD69+ MFI) [4] | IC50 (read off the curve), CD40L-induced IL-12/23 p40 secretion by DC cells [5] | IC50 (read off the curve), CD40L-induced TNFα secretion by DC cells [6] | EC50 [7] | Kd [8] | koff [8] | kon [8] | Kd [9] | koff [9] | kon [9] | Kd (human FcRn antigen) | IC50 (read off the curve), CD40L-induced IL-12/23 p40 secretion by DC cells [10] | IC50 (read off the curve), CD40L-induced TNFα secretion by DC cells [11] | other results
humanized anti-CD40 antibody 9E6-L4H2 (antibody, human IgG1, kappa, N297A, human IgG1 N297A (Eu) heavy chain, human kappa light chain; 9E6-L4 light chain and 9E6-H2 heavy chain) heavy: not shown light: DIQLTQSPSFLSASVGDRVTITCQASEDISSNLAWYQQKPGKPPKLLIFPASNLASGVPSRFSGSGSGTEFTLTISSLQPEDFATYYCQGGYWTSTSNFGQGFGGGTKVEIKRTVAAPSVFIFPPSDEQLKSGTASVVCLLNNFYPREAKVQWKVDNALQSGNSQESVTEQDSKDSTYSLSSTLTLSKADYEKHKVYACEVTHQGLSSPVTKSFNRGEC | 0.14 nM | 0.07 nM | 3.44 nM | 3.72 nM | 1.85 nM | 0.7 nM | ~0.2 nM | 1 to 2 nM | ~0.7 nM | 0.87 nM | 0.536 nM | 0.000221 s⁻¹ | 413000 M⁻¹ s⁻¹ | 0.121 nM | 6.23e-05 s⁻¹ | 514000 M⁻¹ s⁻¹ | 293 nM |  |  | IC50 for the inhibition of CD40 reporter gene cell activity (Assay 2) [1]: 0.5 nM
humanized anti-CD40 antibody 9E6-L4H2-AAYTE (antibody, human IgG1, kappa, L234A L235A, light chain unchanged from 9E6-L4H2) heavy: QVQVQESGPGLVKPSDTLSLTCTVSGFSLSSYDMSWIRQPPGKGLEWIGAIGGAGGTYYASWAKSRVTISVDTSLNQVSLKLSSVTAADTAVYYCARGWTRLDLWGQGTLVTVSSASTKGPSVFPLAPSSKSTSGGTAALGCLVKDYFPEPVTVSWNSGALTSGVHTFPAVLQSSGLYSLSSVVTVPSSSLGTQTYICNVNHKPSNTKVDKKVEPKSCDKTHTCPPCPAPEAAGGPSVFLFPPKPKDTLYITREPEVTCVVVDVSHEDPEVKFNWYVDGVEVHNAKTKPREEQYNSTYRVVSVLTVLHQDWLNGKEYKCKVSNKALPAPIEKTISKAKGQPREPQVYTLPPSREEMTKNQVSLTCLVKGFYPSDIAVEWESNGQPENNYKTTPPVLDSDGSFFLYSKLTVDKSRWQQGNVFSCSVMHEALHNHYTQKSLSLSPGK light: DIQLTQSPSFLSASVGDRVTITCQASEDISSNLAWYQQKPGKPPKLLIFPASNLASGVPSRFSGSGSGTEFTLTISSLQPEDFATYYCQGGYWTSTSNFGQGFGGGTKVEIKRTVAAPSVFIFPPSDEQLKSGTASVVCLLNNFYPREAKVQWKVDNALQSGNSQESVTEQDSKDSTYSLSSTLTLSKADYEKHKVYACEVTHQGLSSPVTKSFNRGEC |  |  |  |  |  |  | ~0.2 nM | ~1 nM | ~0.5 nM |  |  |  |  |  |  |  | 39.8 nM |  |  | 
humanized anti-CD40 antibody 2F12-L4H2 (antibody, human IgG1, kappa, N297A, human IgG1 N297A (Eu) heavy chain, human kappa light chain; 2F12-L4 light chain and 2F12-H2 heavy chain) heavy: not shown light: AFQLTQSPSSLSASVGDRVTITCQASQSISTGLAWYQQKPGKPPKLLIVGASNLASGVPSRFSGSGSGTDFTLTISSLQPEDFATYYCQSYFSSSSTVFGGGTKVEIKRTVAAPSVFIFPPSDEQLKSGTASVVCLLNNFYPREAKVQWKVDNALQSGNSQESVTEQDSKDSTYSLSSTLTLSKADYEKHKVYACEVTHQGLSSPVTKSFNRGEC | 0.04 nM | 0.03 nM | 0.78 nM | 0.52 nM | 0.68 nM | 0.3 nM |  |  |  | 0.589 nM | 2.71 nM | 0.00206 s⁻¹ | 758000 M⁻¹ s⁻¹ | 35.3 nM | 0.414 s⁻¹ | 1.17e+07 M⁻¹ s⁻¹ | 279 nM | ~0.7 nM | ~0.4 nM | IC50 for the inhibition of CD40 reporter gene cell activity (Assay 1) [1]: 0.18 nM
humanized anti-CD40 antibody 2F12-L4H2-AAYTE (antibody, human IgG1, kappa, L234A L235A, light chain unchanged from 2F12-L4H2) heavy: EVTVKESGPVLVKPTETLTLTCTVSGFSLSSYGVSWIRQPPGKALEWLGGIGSDGSAYYASWAKSRLTISRDTNLKQVVLTMTNMDPVDTATYYCARGGITVYAMWGQGTLVTVSSASTKGPSVFPLAPSSKSTSGGTAALGCLVKDYFPEPVTVSWNSGALTSGVHTFPAVLQSSGLYSLSSVVTVPSSSLGTQTYICNVNHKPSNTKVDKKVEPKSCDKTHTCPPCPAPEAAGGPSVFLFPPKPKDTLYITREPEVTCVVVDVSHEDPEVKFNWYVDGVEVHNAKTKPREEQYNSTYRVVSVLTVLHQDWLNGKEYKCKVSNKALPAPIEKTISKAKGQPREPQVYTLPPSREEMTKNQVSLTCLVKGFYPSDIAVEWESNGQPENNYKTTPPVLDSDGSFFLYSKLTVDKSRWQQGNVFSCSVMHEALHNHYTQKSLSLSPGK light: AFQLTQSPSSLSASVGDRVTITCQASQSISTGLAWYQQKPGKPPKLLIVGASNLASGVPSRFSGSGSGTDFTLTISSLQPEDFATYYCQSYFSSSSTVFGGGTKVEIKRTVAAPSVFIFPPSDEQLKSGTASVVCLLNNFYPREAKVQWKVDNALQSGNSQESVTEQDSKDSTYSLSSTLTLSKADYEKHKVYACEVTHQGLSSPVTKSFNRGEC |  |  |  |  |  |  |  |  |  |  |  |  |  |  |  |  | 44.2 nM | ~0.6 nM | ~0.3 nM | 
